Measurements reported in article PMC4785404, “The three-dimensional structure of Clostridium absonum 7α-hydroxysteroid dehydrogenase: new insights into the conserved arginines for NADP(H) recognition” (Scientific Reports, 2016).
“And” between values parts separate entries of the source, which are not always exact repeats. Identical values can stand only once.

How the values were obtained:
[1] = system: NC(=O)c1ccc[n+]([C@@H]2O[C@H](COP(=O)(O)OP(=O)(O)OC[C@H]3O[C@@H](n4cnc5c(N)ncnc54)[C@H](OP(=O)(O)O)[C@@H]3O)[C@@H](O)[C@H]2O)c1; assay: purified protein; conditions: assay conditions by cited earlier methods; co-substrate not given; SD in parentheses; crystal structure of complex with TCDCA also solved; varied: cofactor
[2] = target: the molecule itself; assay: SEC; purified CA 7α-HSDH in aqueous solution; standard proteins of 669, 440, 158, 75, 44, 29 and 13.7 kDa; the dimer fraction of the first run was collected and run again; the tetramer fractions were checked by MS

Q: CA 7α-HSDH (Clostridium sardiniense) was tested. Which Km [1] did it give?
A: The Km was 0.34 (0.01) mM.

Q: What about the kcat [1] of the same molecule?
A: Its kcat is 13.8 s⁻¹.

Q: What about the kcat/Km [1] of the same molecule?
A: Its kcat/Km is 40100 M⁻¹ s⁻¹.

B1: 7α-hydroxysteroid dehydrogenase from Clostridium absonum (enzyme, UniProt G9FRD7 1-262, looked up)
chain: MKRLEGKVAIVTSSTRGIGRASAEALAKEGALVYLAARSEELANEVIADIKKQGGVAKFVYFNAREEETYTSMVEKVAEAEGRIDILVNNYGGTNVNLDKNLTAGDTDEFFRILKDNVQSVYLPAKAAIPHMEKVGGGSIVNISTIGSVVPDISRIAYCVSKSAINSLTQNIALQYARKNIRCNAVLPGLIGTRAALENMTDEFRDSFLGHVPLNRVGRPEDIANAVLYYASDDSGYVTGMIHEVAGGFALGTPQYSEYCPR
notes: 7α-hydroxysteroid dehydrogenase (CA 7α-HSDH), Clostridium absonum; the gene was cloned into pGEX-6p-1; Crystallised with NADP+ and TCDCA; also called CA 7α-HSDH; 7α-HSDH; source: E. coli BL21 (DE3), GST-fused from pGEX-6p-1, purified (monoQ, superdex 75)
Q: For B1, which “stoichiometry N” value [2] is on record?
A: The value was 2 and 4.
